The text below walks through data of patent US20220089784A1 (University of California, published 2022).

The labels stand for the following.
B1: 10H10 scFv (scFv)
scFv: QVQLQQSGAELVRPGTSVKLSCKASGYTFTSYWMHWVKQRPGQGLEWIGVIDPSDSYTNYNQKFKGKATLTVDTSSSTAYMQLSSLTSEDSAVYYCARGGGRSSLDYWGQGTSVTVSSVDLKSGGSTSGSGKPGSGEGSSGSARDVVMTQTPASLAVSLGQRATISCKASQSVDYDGDSYMNWYQQKPGQPPKLLIYAASSLESGIPARFSGSGSGTDFTLNIHPVEEEDAATYYCQQSNEDPYTFGGGTKLEIK
notes: mouse
B2: 1C7 scFv (scFv)
scFv: EVQLQQSGAELVRPGASVKMSCKASGYTFTSYNMHWVKQTPRQGLEWIGAIYPGNGDTSYNQKFKGKATLTVDKSSSTAYMQLSSLTSEDSAVYFCARTAGFYFDYWGQGTTLTVSSVDLKSGGSTSGSGKPGSGEGSSGSARDIVMTQSPAIMSASPGEKVTMTCSASSSVSYMYWYQQKPGSSPRLLIYYTSNLAPGVPARFSGSGSGNSYSLTISSMEGEDAATYYCQQFTSSPYTFGGGTKLEIK
notes: mouse
B3: 10F9 scFv (scFv)
scFv: EVQLQQSGAELVKPGASVKLSCKASGYTFTSYWMHWIKQRPGQGLEWIGVIDPSDSYTNYNQKFKGKATLTVDTSSSTAYMQLSSLTSEDSAVYYCATGGNGFFDYWGQGTTLTVSSVDLKSGGSTSGSGKPGSGEGSSGSARDIVLTQSPASLAVSLGQRATISCRASESVDYDGDSYMNWYQQKPGQPPKLLIYAASNLESGIPARFSGSGSGTDFTLNIHPVEEEDAATYYCLQSNEAPWTFGGGTKLELK
notes: mouse
B4: 10B12 scFv (scFv)
scFv: EVQLQQSGAELVRPGTSVKLSCKSSGYTFTSDWMHWVIQRPGQGLEWIGVIDPSDSYTNYNQKFKGKATLTVDTSSSTAYMHLSSLTSEDSAVYYCARREGHYYGKAMDYWGQGTSVTVSSVDLKSGGSTSGSGKPGSGEGSSGSARDIVMSQSPASLAVSLGQRATISCRASESVDYDGDSYMNWYQQKPGQPPKLLIYAASNLESGIPARFSGSGSGTDFTLNIHPVEEEDAATYYCLQSNEAPWTFGGGTKLEIK
notes: mouse
B5: 10C9 scFv (scFv)
scFv: QVQLQQSGAELVRPGTSVKLSCKASGYTFTSHWMHWVKQRPGQGLEWIGVIDPSDSYTNYNQKFKGKATLTVDTSSSTAYMQLSSLTSEDSAVYYCAIRRNYGMDYWGQGTSVTVSSVDLKSGGSTSGSGKPGSGEGSSGSARDIVMTQSPTSLAVSLGQRATISCKASQSVDYDGDSFMNWYQQKPGQPPKLLIYGASNLESGIPARFSGSGSRTDFTLTINPVEADDVATYYCQQSNEDPLTFGAGTKLELK
notes: mouse
B6: 10H11 scFv (scFv)
scFv: QIQLLQSGAELVKPGASVKLSCTASGFNIKDYYMHWVKQRPEQGLEWIGRIDPEDGDTEYAPKFQGKATMTADTSSNTAYLQLSSLTSEDSAVYFCARLNYDYPYWYFDVWGTGTTLTVSSVDLKSGGSTSGSGKPGSGEGSSGSARQIVLTQSPAIMSASPGEKVTMTCSASSSVSYMYWYQQKPGSSPRLLIYDTSNLASGVPVRFSGSGSGTSYSLTISRMEAEDAATYYCQQWSSYPLTFGAGTRLELK
notes: mouse

As usually defined, the Kd is a measure of binding affinity in units of concentration.

BoNT/A2 holotoxin (FRI-H1A2), sequence (Q45894 2-1296): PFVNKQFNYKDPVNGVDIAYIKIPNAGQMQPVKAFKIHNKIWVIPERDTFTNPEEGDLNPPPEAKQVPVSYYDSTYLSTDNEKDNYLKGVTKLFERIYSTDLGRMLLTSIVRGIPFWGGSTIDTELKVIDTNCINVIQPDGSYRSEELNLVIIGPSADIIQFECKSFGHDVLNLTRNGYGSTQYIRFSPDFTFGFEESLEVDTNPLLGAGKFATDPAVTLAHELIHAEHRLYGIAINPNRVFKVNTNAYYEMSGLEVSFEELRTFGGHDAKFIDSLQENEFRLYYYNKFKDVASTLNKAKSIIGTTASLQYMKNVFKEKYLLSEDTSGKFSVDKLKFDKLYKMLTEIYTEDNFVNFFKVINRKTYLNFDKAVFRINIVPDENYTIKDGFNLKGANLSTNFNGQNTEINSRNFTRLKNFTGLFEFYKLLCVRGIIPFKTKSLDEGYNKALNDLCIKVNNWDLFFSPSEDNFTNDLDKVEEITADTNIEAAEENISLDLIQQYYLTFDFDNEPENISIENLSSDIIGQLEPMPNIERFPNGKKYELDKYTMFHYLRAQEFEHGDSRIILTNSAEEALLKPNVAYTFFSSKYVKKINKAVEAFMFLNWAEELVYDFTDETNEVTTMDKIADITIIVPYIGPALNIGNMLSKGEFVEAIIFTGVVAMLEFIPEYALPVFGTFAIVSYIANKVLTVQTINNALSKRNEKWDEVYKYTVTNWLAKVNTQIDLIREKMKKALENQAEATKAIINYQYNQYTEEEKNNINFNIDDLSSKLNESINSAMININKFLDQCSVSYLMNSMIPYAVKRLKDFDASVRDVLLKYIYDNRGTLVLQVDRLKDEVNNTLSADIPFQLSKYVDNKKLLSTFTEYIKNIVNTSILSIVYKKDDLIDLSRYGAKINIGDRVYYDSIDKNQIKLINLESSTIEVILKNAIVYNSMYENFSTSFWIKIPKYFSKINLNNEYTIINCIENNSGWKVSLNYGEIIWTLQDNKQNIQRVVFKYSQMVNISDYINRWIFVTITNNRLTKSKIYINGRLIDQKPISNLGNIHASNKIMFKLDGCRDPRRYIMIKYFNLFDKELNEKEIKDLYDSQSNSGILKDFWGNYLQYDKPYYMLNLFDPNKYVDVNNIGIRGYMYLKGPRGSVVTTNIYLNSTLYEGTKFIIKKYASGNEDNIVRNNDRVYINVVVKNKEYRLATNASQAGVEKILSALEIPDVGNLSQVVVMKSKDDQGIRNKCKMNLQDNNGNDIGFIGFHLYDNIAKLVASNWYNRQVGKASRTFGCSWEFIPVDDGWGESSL

In one experiment the target is BoNT/A light chain (recombinant) (Clostridium botulinum, UniProt P0DPI0 1-448). The experiment in a line: yeast scFv FACS.
Consider B1, for which the Kd amounted to 11.1 nM.
On the same count and under the same terms, the same measure for B2: 35.3 nM; for B3: 0.09 nM.
The same measure, in the same setting: as for B4, the figure is 0.53 nM.
Still for that read-out and setting: the same measure for B5: 0.36 nM; for B6: 0.92 nM.

A further experiment deals with BoNT/A1 holotoxin (Hall hyper) (Clostridium botulinum, UniProt P0DPI0 2-1296). The experiment can be described thus: yeast scFv FACS.
For B1, the binding result is given as “no binding”.
Take B2: the binding result is reported as “no binding”.
B3: the Kd was > 500 nM.
Take B4: the binding result is given as “no binding”.
For B5, the Kd was > 500 nM.
For the molecule B6, the binding result is recorded as “no binding”.

Another experiment addresses BoNT/A2 holotoxin (FRI-H1A2) (Clostridium botulinum, UniProt Q45894 2-1296). The experiment in a line: yeast scFv FACS.
Turning to B1, the binding result is reported as “no binding”.
Regarding B2, the binding result is listed as “no binding”.
As to B3, the Kd was > 500 nM.
On the same count and under the same terms, the same measure for B4: 140 nM; for B5: 112 nM.
For B6, the binding result was “no binding”.
